Here are results for one substance from patent US20090094709.

The subject of this data set is AMPK, active (upstate) protein.

For PP2Cε protein (in vitro assay), the “dephosphorylation of AMPK” value is on record as “the dephosphorylation of AMPK with PP2Cε occurs concentration-dependently”.
